This is an account of results in patent publication US20190142860A1, “NUCLEIC ACID BASED TIA-1 INHIBITORS” (Aquinnah Pharmaceuticals, Inc., priority 2015, published 2019).

Test [1] has as its target Nucleolysin TIA-1 (endogenous mouse TIA1) (mouse) (UniProt P52912). Put plainly: TIA1 IP-MS, tau KO 1 cortex.
Test [2] shares this target. Briefly: TIA1 IP-MS, WT2 cortex.
Test [3] has the same target. Put plainly: TIA1 IP-MS, tau KO 2 cortex.
Test [4] has the same target. Briefly: TIA1 IP-MS, WT3 cortex.
For test [5] the target is unchanged. Briefly: TIA1 IP-MS, tau KO 3 cortex.
For test [6] the target is unchanged. Put plainly: TIA1 IP-MS, WT1 cortex.

Chain of UniProt P52912 (P52912 whole entry): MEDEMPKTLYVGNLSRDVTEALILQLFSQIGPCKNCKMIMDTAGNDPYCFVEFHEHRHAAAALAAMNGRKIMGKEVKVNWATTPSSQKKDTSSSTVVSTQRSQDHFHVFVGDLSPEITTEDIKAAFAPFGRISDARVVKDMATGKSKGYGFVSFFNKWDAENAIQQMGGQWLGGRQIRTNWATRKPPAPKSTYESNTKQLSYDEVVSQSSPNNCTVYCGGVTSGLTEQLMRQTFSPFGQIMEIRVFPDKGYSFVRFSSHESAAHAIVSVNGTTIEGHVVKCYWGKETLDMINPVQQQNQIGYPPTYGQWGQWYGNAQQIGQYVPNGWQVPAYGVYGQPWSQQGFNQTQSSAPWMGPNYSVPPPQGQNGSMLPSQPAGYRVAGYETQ

For “Protein NipSnap homolog 1 (from UniProt O55125 36-284)”, the total ion current (normalized to TIA1 = 1000) in test [1] was determined as 0; in test [2], 219; in test [3], 27; in test [4], 0; in test [5] it was 0; in test [6] it was 0.

For “Protein NipSnap homolog 2 (from UniProt O55126 28-281)”, the total ion current (normalized to TIA1 = 1000) turned out to be 0 in test [1]; 81 in test [2]; 0 in test [3]; 0 in test [4]; 0 in test [5]; 0 in test [6].

Regarding “Protein disulfide-isomerase A3 (from UniProt P27773 25-505)”, the total ion current (normalized to TIA1 = 1000) in test [1] was found to be 0; in test [2], 69.2; in test [3] it was 36; in test [4] it was 13.8; in test [5], 0; in test [6], 0.

Turning to “Protein kinase C and casein kinase substrate in neurons protein 1 (from UniProt Q61644 1-441)”, the total ion current (normalized to TIA1 = 1000) worked out at 0 in test [1]; 70.2 in test [2]; 31.2 in test [3]; 18.4 in test [4]; 0 in test [5]; 0 in test [6].

Take “Protein kinase C epsilon type (from UniProt P16054 1-737)”: the total ion current (normalized to TIA1 = 1000) amounted to 0 in test [1]; 78.7 in test [2]; 0 in test [3]; 0 in test [4]; 0 in test [5]; 0 in test [6].

Take “Protein kinase C gamma type (from UniProt P63318 1-697)”: the total ion current (normalized to TIA1 = 1000) in test [1] is 30.3; in test [2], 0; in test [3], 0; in test [4], 0; in test [5], 0; in test [6] it was 39.3.

Turning to “Puromycin-sensitive aminopeptidase (from UniProt Q11011 1-920)”, the total ion current (normalized to TIA1 = 1000) in test [1] was determined as 0; in test [2], 0; in test [3], 0; in test [4] it was 49.8; in test [5], 0; in test [6], 0.

For the substance “Putative adenosylhomocysteinase 3 (from UniProt Q68FL4 2-613)”, the total ion current (normalized to TIA1 = 1000) was 8.48 in test [1]; 76.3 in test [2]; 72.5 in test [3]; 45.1 in test [4]; 0 in test [5]; 2.62 in test [6].

Turning to “Pyridoxal kinase (from UniProt Q8K183 1-312)”, the total ion current (normalized to TIA1 = 1000) in test [1] worked out at 0; in test [2] it was 80.3; in test [3] it was 104; in test [4] it was 0; in test [5], 0; in test [6], 0.

For “Pyruvate dehydrogenase E1 component subunit beta, mitochondrial (from UniProt Q9D051 31-359)”, the total ion current (normalized to TIA1 = 1000) in test [1] was 0; in test [2] it was 60.4; in test [3], 51; in test [4] it was 95.5; in test [5], 0; in test [6], 0.

Take “RNA-binding protein EWS (from UniProt Q61545 1-655)”: the total ion current (normalized to TIA1 = 1000) in test [1] was found to be 0; in test [2], 32.5; in test [3], 0; in test [4] it was 0; in test [5], 0; in test [6] it was 6.73.

Turning to “Rabphilin-3A (from UniProt P47708 1-681)”, the total ion current (normalized to TIA1 = 1000) turned out to be 17 in test [1]; 40.4 in test [2]; 0 in test [3]; 0 in test [4]; 0 in test [5]; 0 in test [6].

Consider “Ras-related protein Rab-5A (from UniProt Q9CQD1 1-215)”, for which the total ion current (normalized to TIA1 = 1000) in test [1] was found to be 0; in test [2] it was 126; in test [3], 185; in test [4] it was 302; in test [5], 0; in test [6], 0.

Septin-5 (from UniProt Q9Z2Q6 1-369): the total ion current (normalized to TIA1 = 1000) in test [1] was determined as 0; in test [2], 194; in test [3], 85.5; in test [4], 114; in test [5], 0; in test [6], 0.

As for “Serine protease HTRA1 (from UniProt Q9R118 23-480)”, the total ion current (normalized to TIA1 = 1000) in test [1] turned out to be 7.66; in test [2] it was 0; in test [3], 0; in test [4], 0; in test [5], 0; in test [6], 5.71.

Regarding “Serine--tRNA ligase, cytoplasmic (from UniProt P26638 1-512)”, the total ion current (normalized to TIA1 = 1000) in test [1] was found to be 0; in test [2] it was 65.8; in test [3], 0; in test [4], 0; in test [5] it was 0; in test [6], 0.

Regarding “Serine/arginine-rich splicing factor 2 (from UniProt Q62093 2-221)”, the total ion current (normalized to TIA1 = 1000) came out at 0 in test [1]; 306 in test [2]; 67.1 in test [3]; 71.1 in test [4]; 0 in test [5]; 0 in test [6].

With “Serine/arginine-rich splicing factor 4 (from UniProt Q8VE97 1-489)”, the total ion current (normalized to TIA1 = 1000) came out at 0 in test [1]; 41.6 in test [2]; 0 in test [3]; 0 in test [4]; 0 in test [5]; 0 in test [6].

Turning to “Serine/threonine-protein phosphatase PP1-beta catalytic subunit (from UniProt P62141 2-327)”, the total ion current (normalized to TIA1 = 1000) in test [1] came out at 99.4; in test [2] it was 136; in test [3], 24.6; in test [4] it was 79.5; in test [5] it was 0; in test [6] it was 3.65.

Consider “Sodium/potassium-transporting ATPase subunit beta-2 (from UniProt P14231 1-290)”, for which the total ion current (normalized to TIA1 = 1000) in test [1] turned out to be 0; in test [2], 15.1; in test [3] it was 30.7; in test [4], 25.3; in test [5], 0; in test [6], 0.

As to “Solute carrier family 2, facilitated glucose transporter member 3 (from UniProt P32037 1-493)”, the total ion current (normalized to TIA1 = 1000) in test [1] was determined as 0; in test [2], 107; in test [3], 90.2; in test [4], 190; in test [5] it was 0; in test [6], 0.

For the substance “Sorting and assembly machinery component 50 homolog (from UniProt Q8BGH2 1-469)”, the total ion current (normalized to TIA1 = 1000) amounted to 0 in test [1]; 22.7 in test [2]; 0 in test [3]; 0 in test [4]; 0 in test [5]; 0 in test [6].

For the substance “Splicing factor 45 (from UniProt Q8JZX4 2-405)”, the total ion current (normalized to TIA1 = 1000) in test [1] was 0; in test [2] it was 0; in test [3], 0; in test [4] it was 0; in test [5], 0; in test [6], 1.59.
